Some results are limits rather than exact numbers.

This test addresses ERBB2 (Homo sapiens (Human), UniProt P04626). The experiment in a line: SPR (ErbB-Fc on chip, avid).

B1: S100A4 (protein)
chain 1: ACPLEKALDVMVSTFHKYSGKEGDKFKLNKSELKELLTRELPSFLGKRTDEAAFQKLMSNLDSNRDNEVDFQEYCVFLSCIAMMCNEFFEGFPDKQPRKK
chain 2: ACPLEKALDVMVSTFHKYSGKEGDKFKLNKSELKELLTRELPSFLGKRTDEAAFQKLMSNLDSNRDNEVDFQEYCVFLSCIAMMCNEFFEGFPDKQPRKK
As a reminder, the Kd is the free concentration of one partner at which half of the binding sites on the other are occupied at equilibrium, for simple one-to-one binding. Higher therefore signals a looser complex. The molecule B1 showed a Kd above 1.25 µM.

For the origin of these results see PMC6071530 (2018).
